Results reported in patent US20080260755A1.
One block for each molecule: values may come before it.

Tests used:
[1] = test system: FIX-albumin fusion protein with non-cleavable linker (1478/797)
[2] = test system: FIX-albumin fusion protein with cleavable linker, construct no. 1088/797
[3] = test system: FIX-albumin fusion protein with cleavable linker, construct no. 1089/797
[4] = biological target: activated FIX-albumin fusion protein with cleavable linker (1088/797), activated by FXIa (human) (UniProt P00740); assay: cell-based or functional assay
[5] = biological target: activated FIX-albumin fusion protein with non-cleavable linker (980/797), activated by FXIa (human) (UniProt P00740); assay: cell-based or functional assay
[6] = biological target: FIX-albumin fusion protein with cleavable linker, construct no. 1089/797; remark: listed apart in the source
[7] = biological target: FIX-albumin fusion protein with cleavable linker, construct no. 1088/797; remark: listed apart in the source

Molecule: Factor XIa (FXIa)
- proteolytic cleavage in vitro, SDS-PAGE [1]: The fusion protein with non-cleavable linker did not show a corresponding release of the albumin moiety
- proteolytic cleavage in vitro, SDS-PAGE [2]: are activated and in parallel the linker is cleaved resulting in release of the albumin moiety
- proteolytic cleavage in vitro, SDS-PAGE [3]: are activated and in parallel the linker is cleaved resulting in release of the albumin moiety

- clotting time (naPTT) after 120 min incubation with AT [4]: 540 s
- clotting time (naPTT), control without incubation with AT [4]: 210 s
- factor of increase in clotting time (naPTT) after 120 min incubation with AT [4]: 2.57 x
- clotting time (naPTT) after 120 min incubation with AT [5]: 411 s
- clotting time (naPTT), control without incubation with AT [5]: 196 s
Molecule: Antithrombin III (AT) (from UniProt P01008 33-464)

B1: FVIIa (in the presence of tissue factor) (protein)
chain: ANAFLEELRPGSLERECKEEQCSFEEAREIFKDAERTKLFWISYSDGDQCASSPCQNGGSCKDQLQSYICFCLPAFEGRNCETHKDDQLICVNENGGCEQYCSDHTGTKRSCRCHEGYSLLADGVSCTPTVEYPCGKIPILEKRNASKPQGRIVGGKVCPKGECPWQVLLLVNGAQLCGGTLINTIWVVSAAHCFDKIKNWRNLIAVLGEHDLSEHDGDEQSRRVAQVIIPSTYVPGTTNHDIALLRLHQPVVLTDHVVPLCLPERTFSERTLAFVRFSLVSGWGQLLDRGATALELMVLNVPRLMTQDCLQQSRKVGDSPNITEYMFCAGYSDGSKDSCKGDSGGPHATHYRGTWYLTGIVSWGQGCATVGHFGVYTRVSQYIEWLQKLMRSEPRPGVLLRAPFP
- proteolytic cleavage in vitro in the presence of tissue factor (data not shown) [6]: also showed release of the albumin moiety in parallel to release of the FIX activation peptide
- proteolytic cleavage in vitro in the presence of tissue factor (data not shown) [7]: also showed release of the albumin moiety in parallel to release of the FIX activation peptide
